Data: publication PMC4803053

Target: DSB nucleosomes (position of the break not stated; EMSAs of Figures 5A and 6A) (human) (UniProt P0C0S8)

hexasome formation in EMSA with DSB nucleosomes, against wild-type hMid–AID: 2 fold
Substance: hMidm1m2–AID (Δ746–751/S813A/E829A/R847A/Q849A/L852A/K853A/N854A/D856A) (from UniProt Q9Y5B9 644-988) (domain or fragment)
